Reference: PMC6517398, “Selection of a novel DNA aptamer against OFA/iLRP for targeted delivery of doxorubicin to AML cells”

Target: T1, OFA/iLRP extracellular epitope peptide (UniProt P08865)
T1 chain: NQIQAAFREPR
Experiment: flow cytometry of coated beads; PBS (pH not stated), 200 uL, 30 min, room temperature; 2x10^5 coated beads with 20-40 pmol FAM-ssDNA (cells: 40-60 pmol); washed once or twice with PBS
Conditions: label: FAM (5' in selection primer); single strand, 59 nt

B1: AB3 (ssDNA)
DNA: TGCGTGTGTAGTGTGTCTGTTGTTTGTATTGTTGTCTATCCTCTTAGGGATTTGGGCGG
Which Kd does the source give for B1 here?
The Kd was 101 nM.
